Data on 56 variants can be found in publication PMC11969024 (2025).

The chains are these.
B1: peptide HD2 (from tick evasin EVA4) / CXCL13 (biotinylated, synthetic) (parent complex)
chain 1: EEDDYTAYAPLTCYFT
chain 2: VLEVYYTSLRCRCVQESSVFIPRRFIDRIQILPRGNGCPRKEIIVWKKNKSIVCVDPQAEWIQRMMEVLRKRSSSTLPVPVFKRKIP

Variants of B1 are the subject of the test.
For the variant chain 1 EEDDYTAYAPLTSYFT [chain 1 C13S], the enrichment is -4.26 log2 (difference from the parental peptide).

Consider chain 1 EEDDYTAYAPLTAYFT [chain 1 C13A], for which the enrichment is -7.08 log2 (difference from the parental peptide).

Turning to chain 1 EEDDYTAYAPLTNYFT [chain 1 C13N], the enrichment is -4.98 log2 (difference from the parental peptide).

Regarding chain 1 EEDDYTAYAPLTQYFT [chain 1 C13Q], the enrichment was -8.15 log2 (difference from the parental peptide).

Consider chain 1 EEDDYTAYAPLTLYFT [chain 1 C13L], for which the enrichment is -10.1 log2 (difference from the parental peptide).

As for chain 1 EEDDYTNYAPLTCYFT [chain 1 A7N], the enrichment is 2.99 log2 (difference from the parental peptide).

On to chain 1 EEDDYTTYAPLTCYFT [chain 1 A7T], for which the enrichment was 2.08 log2 (difference from the parental peptide).

As for chain 1 EEDDYTDYAPLTCYFT [chain 1 A7D], the enrichment is 5.88 log2 (difference from the parental peptide).

With chain 1 EEDDYTHYAPLTCYFT [chain 1 A7H], the enrichment is 0.018 log2 (difference from the parental peptide).

In the case of chain 1 EEDDYTSYAPLTCYFT [chain 1 A7S], the enrichment was 2.57 log2 (difference from the parental peptide).

In the case of chain 1 EEDDYTAYAPLLCYFT [chain 1 T12L], the enrichment was -1.72 log2 (difference from the parental peptide).

On to chain 1 EEDDYTAYAPLNCYFT [chain 1 T12N], for which the enrichment was -4.95 log2 (difference from the parental peptide).

For chain 1 EEDDYTAYAPLACYFT [chain 1 T12A], the enrichment was -5.98 log2 (difference from the parental peptide).

For the variant chain 1 EEDDYTAYAPLDCYFT [chain 1 T12D], the enrichment was -5.43 log2 (difference from the parental peptide).

Regarding chain 1 EEDDYTAYAPLMCYFT [chain 1 T12M], the enrichment was -0.149 log2 (difference from the parental peptide).

chain 1 EEDDYTAYAPLFCYFT [chain 1 T12F]: the enrichment is -1.29 log2 (difference from the parental peptide).

Consider chain 1 EEDDYTAYAPSTCYFT [chain 1 L11S], for which the enrichment is -8.97 log2 (difference from the parental peptide).

As to chain 1 EEDDYTAYAPATCYFT [chain 1 L11A], the enrichment is -7.28 log2 (difference from the parental peptide).

As to chain 1 EEDDYTAYAPHTCYFT [chain 1 L11H], the enrichment was -5.03 log2 (difference from the parental peptide).

chain 1 EEDDYTAYAPWTCYFT [chain 1 L11W]: the enrichment is -1.43 log2 (difference from the parental peptide).

As to chain 1 EEDDYTAYAPNTCYFT [chain 1 L11N], the enrichment is -7.22 log2 (difference from the parental peptide).

Take chain 1 EELDYTAYAPLTCYFT [chain 1 D3L]: the enrichment was -5.21 log2 (difference from the parental peptide).

For the variant chain 1 EEPDYTAYAPLTCYFT [chain 1 D3P], the enrichment is -5.29 log2 (difference from the parental peptide).

In the case of chain 1 EEMDYTAYAPLTCYFT [chain 1 D3M], the enrichment was -5.03 log2 (difference from the parental peptide).

On to chain 1 EENDYTAYAPLTCYFT [chain 1 D3N], for which the enrichment was -4.32 log2 (difference from the parental peptide).

On to chain 1 EEIDYTAYAPLTCYFT [chain 1 D3I], for which the enrichment is -5.63 log2 (difference from the parental peptide).

As to chain 1 EEEDYTAYAPLTCYFT [chain 1 D3E], the enrichment is 0.606 log2 (difference from the parental peptide).

Turning to chain 1 EESDYTAYAPLTCYFT [chain 1 D3S], the enrichment was -3.94 log2 (difference from the parental peptide).

On to chain 1 EEDDYTAYAPLTCYIT [chain 1 F15I], for which the enrichment is -5.03 log2 (difference from the parental peptide).

As to chain 1 EEDDYTAYAPLTCYRT [chain 1 F15R], the enrichment is -6.31 log2 (difference from the parental peptide).

Take chain 1 EEDDYTAYAPLTCYLT [chain 1 F15L]: the enrichment is -2.76 log2 (difference from the parental peptide).

In the case of chain 1 EEDDYTAYAPLTCYST [chain 1 F15S], the enrichment is -6.75 log2 (difference from the parental peptide).

As to chain 1 EEDDYTAYAPLTCYFG [chain 1 T16G], the enrichment is 2.07 log2 (difference from the parental peptide).

For chain 1 EEDDYTAYAPLTCYFL [chain 1 T16L], the enrichment is -0.207 log2 (difference from the parental peptide).

As to chain 1 EEDDYTAYAPLTCYFS [chain 1 T16S], the enrichment was 0.948 log2 (difference from the parental peptide).

On to chain 1 EEDDYTAYAPLTCYFR [chain 1 T16R], for which the enrichment was -7.96 log2 (difference from the parental peptide).

For the variant chain 1 EEDDYTAYAPLTCYFQ [chain 1 T16Q], the enrichment was -1.21 log2 (difference from the parental peptide).

For the variant chain 1 EEDDYTAYAPLTCYFV [chain 1 T16V], the enrichment is -0.466 log2 (difference from the parental peptide).

Regarding chain 1 EEDDYTAYAPLTCYFW [chain 1 T16W], the enrichment was -0.0649 log2 (difference from the parental peptide).

Take chain 1 EEDDYTAYAPLTCYFF [chain 1 T16F]: the enrichment was -1.23 log2 (difference from the parental peptide).

Take chain 1 EEDDYTAYAPLTCYFH [chain 1 T16H]: the enrichment was 0.0142 log2 (difference from the parental peptide).

For the variant chain 1 EEDDYTANAPLTCYFT [chain 1 Y8N], the enrichment is -3.32 log2 (difference from the parental peptide).

In the case of chain 1 EEDDYTAGAPLTCYFT [chain 1 Y8G], the enrichment was -3.39 log2 (difference from the parental peptide).

In the case of chain 1 EEDDYTAAAPLTCYFT [chain 1 Y8A], the enrichment is -4.55 log2 (difference from the parental peptide).

With chain 1 EEDDYTATAPLTCYFT [chain 1 Y8T], the enrichment was -4.45 log2 (difference from the parental peptide).

For chain 1 EEDDYTAQAPLTCYFT [chain 1 Y8Q], the enrichment is -5.13 log2 (difference from the parental peptide).

In the case of chain 1 EEDDYTAMAPLTCYFT [chain 1 Y8M], the enrichment was -1.68 log2 (difference from the parental peptide).

On to chain 1 EEDDYTALAPLTCYFT [chain 1 Y8L], for which the enrichment was -2.2 log2 (difference from the parental peptide).

For the variant chain 1 EEDDPTAYAPLTCYFT [chain 1 Y5P], the enrichment is -1.42 log2 (difference from the parental peptide).

For chain 1 EEDDATAYAPLTCYFT [chain 1 Y5A], the enrichment was -2.67 log2 (difference from the parental peptide).

Take chain 1 EEDDMTAYAPLTCYFT [chain 1 Y5M]: the enrichment was -0.226 log2 (difference from the parental peptide).

As for chain 1 EEDDQTAYAPLTCYFT [chain 1 Y5Q], the enrichment was -3.13 log2 (difference from the parental peptide).

chain 1 EEDDHTAYAPLTCYFT [chain 1 Y5H]: the enrichment is -5.1 log2 (difference from the parental peptide).

Regarding chain 1 EEDDDTAYAPLTCYFT [chain 1 Y5D], the enrichment was 1.05 log2 (difference from the parental peptide).

chain 1 EEDDETAYAPLTCYFT [chain 1 Y5E]: the enrichment was -0.259 log2 (difference from the parental peptide).

Regarding chain 1 EEDDLTAYAPLTCYFT [chain 1 Y5L], the enrichment was -1.23 log2 (difference from the parental peptide).
